In patent US20200071416A1 (ASTUTE MEDICAL, published 2020):
Values belong to the binder of their own block, whether it stands above or below them.

Key:
[1] = target: T1, TIMP-2 region 145NHRYQMGCECKI156 (human); assay: Pepscan ELISA on linear 15-mer TIMP-2 peptides
T1 construct: This exact peptide was not itself the assayed species
T1 peptide: NHRYQMGCECKI
Experimental: (§1) Synthetic linear peptides were synthesized and screened as described by Slootstra et al. (Slootstra et al., 1996, Mol. Diversity 1, 87-96) and Timmerman et al. (Timmerman et al., 2007, J, Mol Recognit 20, 283-299). The binding of antibody to each peptide was tested in a PEPSCAN-based enzyme-linked immuno assay (ELISA). The covalently linked peptides were incubated with sample (for example 1 μg/mL antibody diluted in a PBS solution containing 5% horse serum (vol/vol) and 4% ovalbumin (weight/vol)) and 1% Tween 80 at 4° C. overnight. After washing, the peptides were incubated with Goat-anti-Rabbit HRP (Jackson Immunoresearch) for 1 hour at 25° C., and subsequently, after washing the peroxidase substrate 2,2′-azino-di-3-ethylbenzthiazoline sulfonate (ABTS) and […] 3% H₂O₂ were added. After 1 hour the color development was measured.

[2] = target: T2, TIMP-2 region 132PWDTLSTTQKK142 (human); assay: Pepscan ELISA on linear 15-mer TIMP-2 peptides
T2 construct: This exact peptide was not itself the assayed species
T2 peptide: PWDTLSTTQKK
Experimental: as §1

binding result [1]: binds
B1: antibody 40H2-40K3 (antibody, V domains shown)
VH: QSLEESGGDLVKPEGSLTLTCTASGFTISSNYYMCWVRQAPGKGLEWVACILGGSGTYTYYATWAKGRFTISKTSSTTVTLQMPSLTAADTATYFCARQAPADTYLYGGYGPFNLWGQGTLVTVSS
VL: DIVMTQTPSSVEAAVGGTVTIKCQASESISGWLAWYQQKPGQPPKLLIYRASTLESGVPSRFKGSGSGTEFTLTISDLECADAATYYCQCSYGINGNSEHGNPFGGGTEVVVKR

binding result [2]: binds
B2: antibody 6E2.1 (antibody, V domains shown)
VH: QVQLQQSGPQLVRPGASVKISCKASGYSFTSYWMHWVKQRPGQGLEWIGVIDPSDSETRLNQKFKDKATLTVDKSSSTAYMQLNSPTSEDSAVYYCARRDYGSRYDAMDYWGQGTSVTVSS
VL: DIQMTQSSSYLSVSLGGRVTITCKASDHINNWLAWYQQKPGNAPRLLISGATSLETGVPSRFSGSGSGKDYTLSITSLQTEDVATYYCQQYWSTPFTFGSGTKLEIK
notes: Both are partial: a leader, the variable domain and only the start of the constant region
